In patent publication US12168773B2, “Engineered phosphoenolpyruvate carboxylase enzymes” (The Regents of the University of California, priority 2019, dated 2024):

Test system: Zea mays PPC1 (ZmPPC1, C4 PEPC)
Assay: malate dehydrogenase coupled PEPC enzymatic assay, maize C4 PPC1 and engineered variants
Assay type: biochemical
Settings: for Km: 0-7.5 mM phosphoenolpyruvate, read-out: Km PEP; for Km / Vmax: 25° C, HEPES pH7.5; for increases in catalytic efficiency relative to wt ZmPPC1: Kcat/Km; for activity of C4 PEPC: substitution introduced into maize C4 PEPC (ZmPPC1)
From the text: For both Arabidopsis C3 PPC1 (AtPPC1) and maize C4 PPC1 (ZmPPC1), the entire coding sequence for each was cloned into pET22b, which contains an amino-terminal 6×-HIS tag for protein purification, and expression was driven by the T7 promoter and lac operon. Relevant mutations were introduced by the Stratagene QuikChange mutagenesis kit using PCR amplification. Both wild type and mutant cDNA constructs were sequenced entirely following cloning into pet22b. Proteins were produced by growing transformed E. coli (BL21 CodonPlus) in autoinduction medium at 18° C. for 16 hours. Proteins were isolated by sonication of bacterial cells followed by passage over a nickel sepharose affinity column, elution with imidazole and separation on a GE SUPERDEX HILOAD 200 PG 16/60 all using an AKTA FPLC.
Enzyme analysis was conducted in vitro using protein that was generated by expression in E. coli using the pET22b vector. For expression, pET22b constructs were transformed into E. coli BL21-DE3 codon plus RIL cells and grown at 37° C. in autoinduction media until reaching an OD=1 after which these were transferred to 18° C. for 18 hours. Samples were collected and lysed by sonication. Protein was purified by passage through a His-trap nickel affinity column on an Akta FPLC and then eluted with 400 mM imidazole. Partially purified protein was then separated on an FPLC equipped with a HiPrep S200 size exclusion column (16/60) after which collected sample was concentrated by centrifugation to a final concentration of 4 mg/ml in 50% glycerol. Samples were stored at −20° C.
For enzymatic assays, a malate dehydrogenase coupled reaction was conducted with a range of substrate concentrations (0-7.5 mM phosphoenolpyruvate pyruvate) and a range of concentrations of allosteric inhibitor (0-50 mM malate). Assays were monitored using a Victor2 microplate reader at 25° C. Reactions consisted of […] PPC enzyme variants, 50 mM HEPES pH7.5, 10 mM MgCl2, 10 mM KHCO3 (carbonate substrate), 0.2 mM NADH, and 10 units/ml of malate dehydrogenase. Reaction time was 15 minutes and samples were measured on an ˜40 second interval. For measurement, which monitors loss of NADH, excitation wavelength was 340 nM and emission wavelength was 460 nM.

| effects of the allosteric inhibitor malate relative to wt ZmPPC1 | activity of C4 PEPC | Molecule | Km | Vmax | increases in catalytic efficiency relative to wt ZmPPC1 |
| --- | --- | --- | --- | --- | --- |
| greatly reduce | increased activity | ZmPPC1 G678S: engineered Zea mays PPC1 with G678S substitution (G682S in SEQ ID NO:15) (protein) MASTKAPGPGEKHHSIDAQLRQLVPGKVSEDDKLIEYDALLVDRFLNILQDLHGPSLREFVQECYEVSADYEGKGDTTKLGELGAKLTGLAPADAILVASSILHMLNLANLAEEVQIAHRRRNSKLKKGGFADEGSATTESDIEETLKRLVSEVGKSPEEVFEALKNQTVDLVFTAHPTQSARRSLLQKNARIRNCLTQLNAKDITDDDKQELDEALQREIQAAFRTDEIRRAQPTPQDEMRYGMSYIHETVWKGVPKFLRRVDTALKNIGINERLPYNVSLIRFSSWMGGDRDGNPRVTPEVTRDVCLLARMMAANLYIDQIEELMFELSMWRCNDELRVRAEELHSSSGSKVTKYYIEFWKQIPPNEPYRVILGHVRDKLYNTRERARHLLASGVSEISAESSFTSIEEFLEPLELCYKSLCDCGDKAIADGSLLDLLRQVFTFGLSLVKLDIRQESERHTDVIDAITTHLGIGSYREWPEDKRQEWLLSELRGKRPLLPPDLPQTDEIADVIGAFHVLAELPPDSFGPYIISMATAPSDVLAVELLQRECGVRQPLPVVPLFERLADLQSAPASVERLFSVDWYMDRIKGKQQVMVGYSDSGKDAGRLSAAWQLYRAQEEMAQVAKRYGVKLTLFHGRGGTVGRGGGPTHLAILSQPPDTINGSIRVTVQGEVIEFCFSEEHLCFQTLQRFTAATLEHGMHPPVSPKPEWRKLMDEMAVVATEEYRSVVVKEARFVEYFRSATPETEYGRMNIGSRPAKRRPGGGITTLRAIPWIFSWTQTRFHLPVWLGVGAAFKFAIDKDVRNFQVLKEMYNEWPFFRVTLDLLEMVFAKGDPGIAGLYDELLVAEELKPFGKQLRDKYVETQQLLLQIAGHKDILEGDPFLKQGLVLRNPYITTLNVFQAYTLKRIRDPNFKVTPQPPLSKEFADENKPAGLVKLNPASEYPPGLEDTLILTMKGIAAGMQNTG | 2660 ± 333 µM | 17.74 ± 1.04 units/mg | ~200% |
| greatly reduce | increased activity | ZmPPC1 T7781: engineered Zea mays PPC1 with T778I substitution (T782I in SEQ ID NO:15) (protein) MASTKAPGPGEKHHSIDAQLRQLVPGKVSEDDKLIEYDALLVDRFLNILQDLHGPSLREFVQECYEVSADYEGKGDTTKLGELGAKLTGLAPADAILVASSILHMLNLANLAEEVQIAHRRRNSKLKKGGFADEGSATTESDIEETLKRLVSEVGKSPEEVFEALKNQTVDLVFTAHPTQSARRSLLQKNARIRNCLTQLNAKDITDDDKQELDEALQREIQAAFRTDEIRRAQPTPQDEMRYGMSYIHETVWKGVPKFLRRVDTALKNIGINERLPYNVSLIRFSSWMGGDRDGNPRVTPEVTRDVCLLARMMAANLYIDQIEELMFELSMWRCNDELRVRAEELHSSSGSKVTKYYIEFWKQIPPNEPYRVILGHVRDKLYNTRERARHLLASGVSEISAESSFTSIEEFLEPLELCYKSLCDCGDKAIADGSLLDLLRQVFTFGLSLVKLDIRQESERHTDVIDAITTHLGIGSYREWPEDKRQEWLLSELRGKRPLLPPDLPQTDEIADVIGAFHVLAELPPDSFGPYIISMATAPSDVLAVELLQRECGVRQPLPVVPLFERLADLQSAPASVERLFSVDWYMDRIKGKQQVMVGYSDSGKDAGRLSAAWQLYRAQEEMAQVAKRYGVKLTLFHGRGGTVGRGGGPTHLAILSQPPDTINGSIRVTVQGEVIEFCFGEEHLCFQTLQRFTAATLEHGMHPPVSPKPEWRKLMDEMAVVATEEYRSVVVKEARFVEYFRSATPETEYGRMNIGSRPAKRRPGGGITTLRAIPWIFSWIQTRFHLPVWLGVGAAFKFAIDKDVRNFQVLKEMYNEWPFFRVTLDLLEMVFAKGDPGIAGLYDELLVAEELKPFGKQLRDKYVETQQLLLQIAGHKDILEGDPFLKQGLVLRNPYITTLNVFQAYTLKRIRDPNFKVTPQPPLSKEFADENKPAGLVKLNPASEYPPGLEDTLILTMKGIAAGMQNTG | 1190 ± 104 µM | 14.05 ± 0.44 units/mg | ~300% |
